Source: patent US20240368565A1, “COMPLEMENTATION-BASED TAGS AND REPORTERS FOR DUAL-MODALITY LABELING” (Promega Corporation, priority 2023, published 2024)
Peptide text beside a SMILES is read from it. * marks the point of attachment. Biotin = O=C1N[C@H]2[C@H](CS[C@H]2CCCCC(=O)*)N1

How the values were obtained:
Assay in all cases: biochemical
Format in all cases: binding
[1] = molecular target: HaloTag[22-297](M2F + K140E)-12xGly/Ser-LgBiT-3xGly/Ser-6xHis (Rhodococcus rhodochrous, UniProt P0A3G2, A155T/A167V/A172T/A224E/C128F/C176G/D78G/E257K/H272N/K175M/K195N/L47V/L88M/N227D/S58T/T264A/Y273L/Y87F); settings: biotinylated peptide on streptavidin probes, PBST, 25° C.
LgBiT-6xHis = LgBiT-6xHis (Oplophorus gracilirostris, UniProt Q9GV45, A31E/A60N/A81I/D135N/F58L/F95D/G42A/G62A/G78A/G94A/G98A/H120P/I103V/I117V/I134L/K70R/L176M/L54V/L73R/L99Q/M102E/N171T/P142E/Q151K/Q38E/Q45L/V71I/Y165I)
[2] = molecular target: HaloTag[22-297](M2F + D53G + K140E)-12xGly/Ser-LgBiT-3xGly/Ser-6xHis (Rhodococcus rhodochrous, UniProt P0A3G2, A155T/A167V/A172T/A224E/C128F/C176G/D73G/D78G/E257K/H272N/K175M/K195N/L47V/L88M/N227D/S58T/T264A/Y273L/Y87F)
[3] = biotinylated peptide on streptavidin probes, PBST, 25° C.

Row | Compound | Koff [1] | Kon [1] | further results
1 | CC[C@H](C)[C@H](NC(=O)[C@H](CCC(=O)O)NC(=O)CCCC[C@@H]1SC[C@@H]2NC(=O)N[C@@H]21)C(=O)NCC(=O)N[C@H](C(=O)NCC(=O)N[C@@H](Cc1ccccc1)C(=O)N1CCC[C@H]1C(=O)N[C@@H](Cc1ccccc1)C(=O)N[C@@H](CCCNC(=N)N)C(=O)N1CCC[C@H]1C(=O)N[C@@H](Cc1c[nH]cn1)C(=O)N[C@@H](Cc1ccc(O)cc1)C(=O)N[C@H](C(=O)N[C@@H](CCCCN)C(=O)N[C@H](C(=O)N[C@@H](CC(C)C)C(=O)NCC(=O)NCC(=O)NCC(=O)N[C@@H](CO)C(=O)NCC(=O)N[C@H](C(=O)N[C@@H](CO)C(=O)N[C@H](C(=O)N[C@@H](CO)C(=O)NCC(=O)N[C@@H](Cc1c[nH]c2ccccc12)C(=O)N[C@@H](CCCNC(=N)N)C(=O)N[C@@H](CC(C)C)C(=O)N[C@@H](Cc1ccccc1)C(=O)N[C@@H](CCCCN)C(=O)N[C@@H](CCCCN)C(=O)N[C@H](C(=O)N[C@@H](CO)C(=O)O)[C@@H](C)CC)C(C)C)C(C)C)C(C)C)C(C)C)[C@@H](C)O [HaloTag[3-19](D9R + E14K)-4xGS-VSHiBiT] (Biotin-EIGTGFPFRPHYVKVLGGGSGVSVSGWRLFKKIS-OH) | – | – | Kd [1]: 0.111 nM
2 | CC[C@H](C)[C@H](NC(=O)[C@H](CCC(=O)O)NC(=O)CCCC[C@@H]1SC[C@@H]2NC(=O)N[C@@H]21)C(=O)NCC(=O)N[C@H](C(=O)NCC(=O)N[C@@H](Cc1ccccc1)C(=O)N1CCC[C@H]1C(=O)N[C@@H](Cc1ccccc1)C(=O)N[C@@H](CCCNC(=N)N)C(=O)N1CCC[C@H]1C(=O)N[C@@H](Cc1c[nH]cn1)C(=O)N[C@@H](Cc1ccc(O)cc1)C(=O)N[C@H](C(=O)N[C@@H](CCC(=O)O)C(=O)N[C@H](C(=O)N[C@@H](CC(C)C)C(=O)NCC(=O)NCC(=O)NCC(=O)N[C@@H](CO)C(=O)NCC(=O)N[C@H](C(=O)N[C@@H](CO)C(=O)N[C@H](C(=O)N[C@@H](CO)C(=O)NCC(=O)N[C@@H](Cc1c[nH]c2ccccc12)C(=O)N[C@@H](CCCNC(=N)N)C(=O)N[C@@H](CC(C)C)C(=O)N[C@@H](Cc1ccccc1)C(=O)N[C@@H](CCCCN)C(=O)N[C@@H](CCCCN)C(=O)N[C@H](C(=O)N[C@@H](CO)C(=O)O)[C@@H](C)CC)C(C)C)C(C)C)C(C)C)C(C)C)[C@@H](C)O [HaloTag[3-19](D9R)-4xGly/Ser-VSHiBiT] (Biotin-EIGTGFPFRPHYVEVLGGGSGVSVSGWRLFKKIS-OH) | – | – | Kd [1]: 0.126 nM
3 | CC[C@H](C)[C@H](NC(=O)[C@H](CCCCN)NC(=O)[C@H](CCCCN)NC(=O)[C@H](Cc1ccccc1)NC(=O)[C@H](CC(C)C)NC(=O)[C@H](CCCNC(=N)N)NC(=O)[C@H](Cc1c[nH]c2ccccc12)NC(=O)CNC(=O)[C@H](CO)NC(=O)[C@@H](NC(=O)[C@H](CO)NC(=O)[C@@H](NC(=O)CNC(=O)[C@H](CO)NC(=O)CNC(=O)CNC(=O)CNC(=O)[C@H](CC(C)C)NC(=O)[C@@H](NC(=O)[C@H](CCC(=O)O)NC(=O)[C@@H](NC(=O)[C@H](Cc1ccc(O)cc1)NC(=O)[C@H](Cc1c[nH]cn1)NC(=O)[C@@H]1CCCN1C(=O)[C@H](CC(=O)O)NC(=O)[C@H](Cc1ccccc1)NC(=O)[C@@H]1CCCN1C(=O)[C@H](Cc1ccccc1)NC(=O)CNC(=O)[C@@H](NC(=O)[C@H](CCCCN)NC(=O)[C@H](CCCNC(=N)N)NC(=O)[C@H](CCC(=O)O)NC(=O)CCCC[C@@H]1SC[C@@H]2NC(=O)N[C@@H]21)[C@@H](C)O)C(C)C)C(C)C)C(C)C)C(C)C)C(=O)N[C@@H](CO)C(=O)O [HaloTag[3-19](I2R + G3K)-4xGS-VSHiBiT] (Biotin-ERKTGFPFDPHYVEVLGGGSGVSVSGWRLFKKIS-OH) | – | – | Kd (LgBiT-6xHis): 0.323 nM
4 | CC[C@H](C)[C@H](NC(=O)[C@H](CCCCN)NC(=O)[C@H](CCCCN)NC(=O)[C@H](Cc1ccccc1)NC(=O)[C@H](CC(C)C)NC(=O)[C@H](CCCNC(=N)N)NC(=O)[C@H](Cc1c[nH]c2ccccc12)NC(=O)CNC(=O)[C@H](CO)NC(=O)[C@@H](NC(=O)[C@H](CO)NC(=O)[C@@H](NC(=O)CNC(=O)[C@H](CO)NC(=O)CNC(=O)CNC(=O)CNC(=O)[C@H](CC(C)C)NC(=O)[C@@H](NC(=O)[C@H](CCC(=O)O)NC(=O)[C@@H](NC(=O)[C@H](Cc1ccc(O)cc1)NC(=O)[C@H](Cc1c[nH]cn1)NC(=O)[C@@H]1CCCN1C(=O)[C@H](CC(=O)O)NC(=O)[C@H](Cc1ccccc1)NC(=O)[C@@H]1CCCN1C(=O)[C@H](Cc1ccccc1)NC(=O)[C@H](CCCNC(=N)N)NC(=O)[C@@H](NC(=O)CNC(=O)[C@H](CCCNC(=N)N)NC(=O)[C@H](CCC(=O)O)NC(=O)CCCC[C@@H]1SC[C@@H]2NC(=O)N[C@@H]21)[C@@H](C)O)C(C)C)C(C)C)C(C)C)C(C)C)C(=O)N[C@@H](CO)C(=O)O [HaloTag[3-19](I2R + G5R)-4xGS-VSHiBiT] (Biotin-ERGTRFPFDPHYVEVLGGGSGVSVSGWRLFKKIS-OH) | – | – | Kd (LgBiT-6xHis): 0.11 nM
5 | CC[C@H](C)[C@H](NC(=O)[C@H](CCCCN)NC(=O)[C@H](CCCCN)NC(=O)[C@H](Cc1ccccc1)NC(=O)[C@H](CC(C)C)NC(=O)[C@H](CCCNC(=N)N)NC(=O)[C@H](Cc1c[nH]c2ccccc12)NC(=O)CNC(=O)[C@H](CO)NC(=O)[C@@H](NC(=O)CNC(=O)[C@H](CO)NC(=O)CNC(=O)CNC(=O)CNC(=O)[C@H](CC(C)C)NC(=O)[C@@H](NC(=O)[C@H](CCC(=O)O)NC(=O)[C@@H](NC(=O)[C@H](Cc1ccc(O)cc1)NC(=O)[C@H](Cc1c[nH]cn1)NC(=O)[C@@H]1CCCN1C(=O)[C@H](CC(=O)O)NC(=O)[C@H](Cc1ccccc1)NC(=O)[C@@H]1CCCN1C(=O)[C@H](Cc1ccccc1)NC(=O)CNC(=O)[C@@H](NC(=O)CNC(=O)[C@H](CCCNC(=N)N)NC(=O)[C@H](CCC(=O)O)NC(=O)CCCC[C@@H]1SC[C@@H]2NC(=O)N[C@@H]21)[C@@H](C)O)C(C)C)C(C)C)C(C)C)C(=O)N[C@@H](CO)C(=O)O [HaloTag[3-19](I2R)-4xGly/Ser-HiBiT] (Biotin-ERGTGFPFDPHYVEVLGGGSGVSGWRLFKKIS-OH) | – | – | Kd [2]: 0.323 nM
6 | CC[C@H](C)[C@H](NC(=O)[C@H](CCCCN)NC(=O)[C@H](CCCCN)NC(=O)[C@H](Cc1ccccc1)NC(=O)[C@H](CC(C)C)NC(=O)[C@H](CCCNC(=N)N)NC(=O)[C@H](Cc1c[nH]c2ccccc12)NC(=O)CNC(=O)[C@H](CO)NC(=O)[C@@H](NC(=O)[C@H](CO)NC(=O)[C@@H](NC(=O)CNC(=O)[C@H](CC(C)C)NC(=O)[C@@H](NC(=O)[C@H](CCC(=O)O)NC(=O)[C@@H](NC(=O)[C@H](Cc1ccc(O)cc1)NC(=O)[C@H](Cc1c[nH]cn1)NC(=O)[C@@H]1CCCN1C(=O)[C@H](CC(=O)O)NC(=O)[C@H](Cc1ccccc1)NC(=O)[C@@H]1CCCN1C(=O)[C@H](Cc1ccccc1)NC(=O)CNC(=O)[C@@H](NC(=O)CNC(=O)[C@H](CCCNC(=N)N)NC(=O)[C@H](CCC(=O)O)NC(=O)CCCC[C@@H]1SC[C@@H]2NC(=O)N[C@@H]21)[C@@H](C)O)C(C)C)C(C)C)C(C)C)C(C)C)C(=O)N[C@@H](CO)C(=O)O [HaloTag[3-19](I2R)-VSHiBiT] (Biotin-ERGTGFPFDPHYVEVLGVSVSGWRLFKKIS-OH) | – | – | Kd [2]: 0.713 nM
7 | EIGTGFPFDPHYVEVRGGGSGVSVSGWRLFKKIS [HaloTag[3-19](L16R)-4xGly/Ser-VSHiBiT] | NA (dissociation that is too slow for the instrument to measure (limit 10^6 l/s)) | 77900 M⁻¹ s⁻¹ | –
8 | EIGTGFPFDPHYVKVLGGGSGVSVSGWRLFKKIS [HaloTag[3-19](E14K)-4xGly/Ser-VSHiBiT] | NA (dissociation that is too slow for the instrument to measure (limit 10^6 l/s)) | 108000 M⁻¹ s⁻¹ | –
9 | EIGTGFPFRPHYVEVRGGGSGVSVSGWRLFKKIS [HaloTag[3-19](D9R + L16R)-4xGS-VSHiBiT] | NA (dissociation that is too slow for the instrument to measure (limit 10^6 l/s)) | 134000 M⁻¹ s⁻¹ | Koff (LgBiT-6xHis; [3]): NA (dissociation that is too slow for the instrument to measure (limit 10^6 l/s)); Kon (LgBiT-6xHis; [3]): 64800 M⁻¹ s⁻¹
10 | EIKTGFPFDPHYVEVRGGGSGVSVSGWRLFKKIS [HaloTag[3-19](G3K + L16R)-4xGS-VSHiBiT] | NA (dissociation that is too slow for the instrument to measure (limit 10^6 l/s)) | 97100 M⁻¹ s⁻¹ | –
11 | EIKTGFPFDPHYVKVLGGGSGVSVSGWRLFKKIS [HaloTag[3-19](G3K + E14K)-4xGS-VSHiBiT] | NA (dissociation that is too slow for the instrument to measure (limit 10^6 l/s)) | 128000 M⁻¹ s⁻¹ | –
12 | ERGTGFPFDPHYVEVLGGGSGVSVSGWRLFRRIS | – | – | Koff [2, 3]: NA (dissociation that is too slow for the instrument to measure (limit 10^6 l/s)); Kon [2, 3]: 71400 M⁻¹ s⁻¹
13 | ERGTGFPFDPHYVEVLRGGSGVSVSGWRLFKKIS [HaloTag[3-19](I2R + G17R)-4xGS-VSHiBiT] | NA (dissociation that is too slow for the instrument to measure (limit 10^6 l/s)) | 93300 M⁻¹ s⁻¹ | –
14 | ERGTGFPFRPHYVEVLGGGSGVSVSGWRLFKKIS [HaloTag[3-19](I2R + D9R)-4xGS-VSHiBiT] | NA (dissociation that is too slow for the instrument to measure (limit 10^6 l/s)) | 128000 M⁻¹ s⁻¹ | –
